Source: the DeepSol protein solubility set

Assay: soluble on expression in E. coli; label from the status in PepcDB or PDB records

Sequence | soluble on expression in E. coli
MILVFLDNMASIKDLNLIDEINDSSNLKLINDRLKLLFWTKNPEITDEENKKKYLDFLNEYWDTLRAYGAGDLELFPDKINYLTLILAANSKNHNIYIKKLAEKYAEKIPIEDGDSKINIWDFIDVAANSRNNDLHLERMILEGDTVLLNQKNQSIYNFEKIRLKLKNYVEKVRNAEMPKEIKDLLVKKSEEAFEGINIGYNIESGIKVSTKEYSGEIPEDWHPPCMREILNDILSGGSPSHYARRSFVVYRFVSQFDPNLRPIEEGIITNRSAQDIATEEQIERFLDEIINIFKSVGDFDVEKTKYYISHNIGYKVANHITHCEYCKNWRDDGGKGLGYYCRPDSTCSRKDIIHPLDYLCHNINRHVKKSELEHHHHHH | not soluble
SLQTLEKSVIGVRVAVEASPVGASRRAREGWRRPASRHEAGALPLPSEQHITFFKLRPGCLDFLRRVSQTFELYMYTMGTALHAATALRILDPKRRFFGRRVFSRQDAVNGLKAIERIFPHDQKMVLVVDDLECMWRYSPCCIKVQGYHYFADVSAADARRISPHSYTQWLSMARPFCNFLPSERIKLCRHVRRCLPSKDA | not soluble
MAHHHHHHMVENKSKVKDISLAPFGKMQMEISENEMPGLMRIREEYGKDQPLKNAKITGCLHMTVECALLIETLQKLGAQIRWCSCNIYSTADYAAAAVSTLENVTVFAWKNETLEEYWWCVESALTWGDGDDNGPDMIVDDGGDATLLVHKGVEYEKLYEEKNILPDPEKAKNEEERCFLTLLKNSILKNPKKWTNIAKKIIGVSEETTTGVLRLKKMDKQNELLFTAINVNDAVTKQKYDNVYGCRHSLPDGLMRATDFLISGKIVVICGYGDVGKGCASSMKGLGARVYITEIDPICAIQAVMEGFNVVTLDEIVDKGDFFITCTGNVDVIKLEHLLKMKNNAVVGNIGHFDDEIQVNELFNYKGIHIENVKPQVDRITLPNGNKIIVLARGRLLNLGCATGHPAFVMSFSFCNQTFAQLDLWQNKDTNKYENKVYLLPKHLDEKVALYHLKKLNASLTELDDNQCQFLGVNKSGPFKSNEYRY | soluble
EFKHILVGVDDSDDAQLAFRYAINRAKSDGAKLTIVSILEQDNMNVYEAMSKDFVHGQRKDLEEHVQQYQKLARDFGVTDVNAVVDEGDPGETIVKTVIPALKPDLLVIGSVAKHGVRKYFGSQAAYMAKHAPISVLVIR | not soluble
MRLLTCDCTFMGQKHSGSVSVEKKNQENDGPPTYEIVFGWSQSFENLMKHRAGQKYFAEFLKGEYSDENILFWQACEELKREKNAEKIEEKARIIYEDFISILSPKEVSLDSRVREIVNTNMGRPSASTFDEAQNQIYTLMQRDSYPRFLASNIYKTVMGTFGIKEEAV | not soluble
MADRLIVKGAREHNLRSVDLDLPRDALIVFTGLSGSGKSSLAFDTIFAEGQRRYVESLSAYARQFLGQMDKPDVDFIEGLSPAVSIDQKSTNRNPRSTVGTITEVYDYLRLLYARAGTPHCPTCGERVARQTPQQIVDQVLAMPEGTRFLVLAPVVRTRKGEFADLFDKLNAQGYSRVRVDGVVHPLTDPPKLKKQEKHDIEVVVDRLTVKAAAKRRLTDSVETALNLADGIVVLEFVDHELGAPHREQRFSEKLACPNGHALAVDDLEPRSFSFNSPYGACPECSGLGIRKEVDPELVVPDPDRTLAQGAVAPWSNGHTAEYFTRMMAGLGEALGFDVDTPWRKLPAKARKAILEGADEQVHVRYRNRYGRTRSYYADFEGVLAFLQRKMSQTESEQMKERYEGFMRDVPCPVCAGTRLKPEILAVTLAGESKGEHGAKSIAEVCELSIADCADFLNALTLGPREQAIAGQVLKEIRSRLGFLLDVGLEYLSLSRAAATLSGGEAQRIRLATQIGSGLVGVLYVLDEPSIGLHQRDNRRLIETLTRLRDLGNTLIVVEHDEDTIEHADWIVDIGPGAGEHGGRIVHSGPYDELLRNKDSITGAYLSGRESIEIPAIRRSVDPRRQLTVVGAREHNLRGIDVSFPLGVLTSVTGVSGSGKSTLVNDILAAVLANRLNGARQVPGRHTRVTGLDYLDKLVRVDQSPIGRTPRSNPATYTGVFDKIRTLFAATTEAKVRGYQPGRFSFNVKGGRCEACTGDGTIKIEMNFLPDVYVPCEVCQGARYNRETLEVHYKGKTVSEVLDMSIEEAAEFFEPIAGVHRYLRTLVDVGLGYVRLGQPAPTLSGGEAQRVKLASELQKRSTGRTVYILDEPTTGLHFDDIRKLLNVINGLVDKGNTVIVIEHNLDVIKTSDWIIDLGPEGGAGGGTVVAQGTPEDVAAVPASYTGKFLAEVVGGGASAATSRSNRRRNVSA | soluble
QSLVKDFLSGVFMLIEDQYGVGDTIDVGDVVGTVEDVSLRLTTLRDINGTQWFVRNGEILRVGNFSQEYAVAIINVPIALDEKASDAIALIEKSVADEAQLQEVADVLLDDPVVDGVNSVGLDHMVIRTRVTTLPDQQWFIERKMRARILTDLQRNGIDTPYPEGIGAYRRLDDEE | not soluble
MNKEEIILSAKNWMHSHFENETTGHDWSHIKRVWKLSKEIQSKEGGDLFTIELAALFHDYSDIKLTTDEQEATKTLINWMETKEIPSELIKKIIRIIQSVSFKKGKNTFKALTIEEKIVQDADRLDAIGAIGIARTFTYGGAHNREIANQNNPKNTTLQHFYDKLLLIKDQLNTETAKTIAKEKQKIMQDFIQALEKELKVLEHHHHHH | soluble
MGSDKIHHHHHHMALSERLSRFLARKGITYQPLETEPVANLDAAVLASGKPQHDFIKATLLIDINGVVMVVHRFDSTLDMDAVHQFTGRRLQPLTARQTSRLFGDCDAGFVPPIGAAWELPVLVDEDVVTAESVIFSGGTDHSLVEMDGRAFRLAQAGARQGHLVIRGQGGEDREALTLEDVADKLQKLYRLPPMPALALRILRLTANTEATAKELAELIEFDPSMTAQIMRYARSALFNYPGQINSVQEAVTRVLGFDRVAHIALGIASVRAFDVPRGGMLGMDNFWRHSLYCAFLCQNLAAYSGRDKGLAYLCGLLHNFGLLLVGHLFPSEFEELNALREINPEASMHSLEQEVFGHSERQDILAVGHGAIGGILHRLWQLPEAVIKAAGMHQHIGYHGEHEEYVQMVQLANAILKERGIGDELNPDDLPALVESLGLRADVLERVQSDMDQVASDLDVLASSLAS | not soluble
MTLPRFDQIRPKIEQHIREVKDFPKKGINFRDIMPLFTNPQLVNELCVVIADHVRHTVGHVDSVAGLEARGFLFGPQVAIQLGVPFVPIRKKGKLPGATIEASYVKEYGEDRVEIQEGAIKNGDIVFLIDDLLATGGTLRAATDLVVKAGGKVGEAFVLIELAPLNGRSKLPDVNLTTLISYDSA | not soluble
MPQQKNFVTMPAQHQNKQPGIESLMNPLPQFEDPNYKGSEKLKGKNVLITGGDSGIGRAVSIAFAKEGANIAIAYLDEEGDANETKQYVEKEGVKCVLLPGDLSDEQHCKDIVQETVRQLGSLNILVNNVAQQYPQQGLEYITAEQLEKTFRINIFSYFHVTKAALSHLKQGDVIINTASIVAYEGNETLIDYSATKGAIVAFTRSLSQSLVQKGIRVNGVAPGPIWTPLIPSSFDEKKVSQFGSNVPMQRPGQPYELAPAYVYLASSDSSYVTGQMIHVNGGVIVNG | not soluble
MAPVLSKDVADIESILALNPRTQSHAALHSTLAKKLDKKHWKRNPDKNCFHCEKLENNFDDIKHTTLGERGALREAMRCLKCADAPCQKSCPTHLDIKSFITSISNKNYYGAAKMIFSDNPLGLTCGMVCPTSDLCVGGCNLYATEEGSINIGGLQQFASEVFKAMNIPQIRNPCLPSQEKMPEAYSAKIALLGAGPASISCASFLARLGYSDITIFEKQEYVGGLSTSEIPQFRLPYDVVNFEIELMKDLGVKIICGKSLSENEITLNTLKEEGYKAAFIGIGLPEPKTDDIFQGLTQDQGFYTSKDFLPLVAKSSKAGMCACHSPLPSIRGAVIVLGAGDTAFDCATSALRCGARRVFLVFRKGFVNIRAVPEEVELAKEEKCEFLPFLSPRKVIVKGGRIVAVQFVRTEQDETGKWNEDEDQIVHLKADVVISAFGSVLRDPKVKEALSPIKFNRWDLPEVDPETMQTSEPWVFAGGDIVGMANTTVESVNDGKQASWYIHKYIQAQYGASVSAKPELPLFYTPVDLVDISVEMAGLKFINPFGLASAAPTTSSSMIRRAFEAGWGFALTKTFSLDKDIVTNVSPRIVRGTTSGPMYGPGQSSFLNIELISEKTAAYWCQSVTELKADFPDNIVIASIMCSYNKNDWMELSRKAEASGADALELNLSAPHGMGERGMGLACGQDPELVRNICRWVRQAVQIPFFAKLTPNVTDIVSIARAAKEGGADGVTATNTVSGLMGLKADGTPWPAVGAGKRTTYGGVSGTAIRPIALRAVTTIARALPGFPILATGGIDSAESGLQFLHSGASVLQVCSAVQNQDFTVIQDYCTGLKALLYLKSIEELQGWDGQSPGTESHQKGKPVPRIAELMGKKLPNFGPYLEQRKKIIAEEKMRLKEQNAAFPPLERKPFIPKKPIPAIKDVIGKALQYLGTFGELSNIEQVVAVIDEEMCINCGKCYMTCNDSGYQAIQFDPETHLPTVTDTCTGCTLCLSVCPIIDCIRMVSRTTPYEPKRGLPLAVNPVC | soluble
MPNTTNKDYTKYSQRQLFSFLNSIKTKQKRALEKLKEIQAQKQRIKKALQFKALNLTENGYTIEEEREILARAKDTKNRLCFKSIEDFKKHCENL | not soluble
MEVTVMPAAAPVQKQQGLNQIVINKVQKMIEGKQQGVMATITRLLEEGKIAQDFIAPIGVNLRNEDRHPVITFQAEEQVQMNMPEGNFNLHGNAISQISEKMGIPAKYLRELSAGDAWQKQLCATILNEHSGWTGRTRVLIRAVGTEIRGVLSDSYRRLNSVDILTAFIREAANNGAVVSDAYMNDTKVWCETILPTPVEIPTRKNGTVIIFAGARFSTSDFGNGSVDMRSFLLNGACLNGMVRESVMRQIHLGGRLPDTLALSQRTYELDTKTTVSAVKDLTKGLYSKNTIMQKAIEIQGASEIDVDFDKELKSLVQRGALLKNEGREVEKLLMNNNPDDGITGGATLWKLAQGITAFAREQEPERSRELHEISGQLMNRVKNN | not soluble
MAFQLEMVTRETVVIRLFGELDHHAVEQIRAKISTAIFQGAVTTIIWNFERLSFMDSSGVGLVLGRMRELEAVAGRTILLNPSPTVRKVFQFSGLGPWMMDATEEEAIDRVRGIVNG | soluble
MKLEYLIDQAAGQPKKTVAVAVAEDHEVIEAVAKAIKLQLAQFRLYGNQEKIMGMLQEHGLQTSEHVEVIAAMSSAEAAELSVKAVRNGEADVLMKGNIPTANILKAVLNKEWGLRKGSVLSHVAAFEVPNYDRLIFVTDAAMNIAPDVTQKAAIIQNTVEVARAIGIDLPKVAPIAAVEVVNPAMQATIDAAMLTQMNRRGQIKDCIVDGPLALDNAVSQIAAEHKGIVSDVAGKADILLVPTIEAGNVLYKSLVYFADAKVGAMIAGAKAPIVLTSRADSAETKVYSLALAVATASK | soluble
MQDGMYQRFLRQHVHPEETGGSDRYCNLMMQRRKMTLYHCKRFNTFIHEDIWNIRSICSTTNIQCKNGKMNCHEGVVKVTDCRDTGSSRAPNCRYRAIASTRRVVIACEGNPQVPVHFDG | soluble
MTTDAAVAELLALGELTVRGRIRDASNAALYCTVTHEGREAACVYKPVAGERPLWDFPDGTLAQREVAAYEVSEATGWGLVPPTVLRDGPYGEGMVQLWIETVPETELLALVDEEEPGPGWKGIALAEVGEGRTALLVHADDERLRRLAVLDAVINNADRKGGHLLPAAGERLYGIDHGVTFNAENKLRTLLWGWAGDALTGEALAVLDALRRALKDGGTLALRLAALITPAELDATRARVDALLASGKHPEPGGEWPAIPWPPVLEHHHHHH | not soluble
MAHHHHHHMSSSAEEKEAKKQEELRLAGSDSEGVRAAVKAQRELKKKRDALRKVQKKIRSGGSDAEVAAAIEQEAALLAEIGHLEALRGASSAPSTAHVAAASFTSTPATAAASPGALVTVATNKSSGAKAARSGEPAKEITAEERAASAKRLHDLVQGAMDANRLKCLHVLPRDAVVHPRIAEVAVLMEQMLLVGGSARALALISAFRELSRTTTVLAVPSLNEVNTTAFEKLIQINFDFVRRKREASAGMRHVKDVLVRRFVALRDEVIHPKPNMVDLIKDL | not soluble
